Values of other authors in paper PMC3433420.
Read-outs that look alike come from different tables or passages of the source.

Assays:
Details in all cases: cited from earlier work
[1] = molecular target: PIK3R3-N (Homo sapiens) (UniProt Q92569)
[2] = molecular target: PIK3R3-NC (Homo sapiens) (UniProt Q92569)
[3] = molecular target: PLCG2-NC (Homo sapiens) (UniProt P16885)
[4] = molecular target: ITK (Homo sapiens) (UniProt Q08881)
[5] = molecular target: TENC1 (Homo sapiens) (UniProt Q63HR2)
[6] = molecular target: GRB7 (Homo sapiens) (UniProt Q14451)
[7] = molecular target: RASA1-N (Homo sapiens) (UniProt P20936)
[8] = molecular target: LYN (Homo sapiens) (UniProt P07948)
[9] = molecular target: FGR (Homo sapiens) (UniProt P09769)
[10] = molecular target: PIK3R1-NC (Homo sapiens) (UniProt P27986)
[11] = molecular target: TENC1 (Homo sapiens) (UniProt Q63HR2); remark: listed apart in the source
[12] = molecular target: PIK3R3-N (Homo sapiens) (UniProt Q92569); remark: listed apart in the source
[13] = molecular target: PIK3R2-NC (Homo sapiens) (UniProt O00459)
[14] = molecular target: ABL2 (Homo sapiens) (UniProt P42684)
[15] = molecular target: PIK3R2-N (Homo sapiens) (UniProt O00459)
[16] = molecular target: YES1 (Homo sapiens) (UniProt P07947)
[17] = molecular target: PIK3R2-NC (Homo sapiens) (UniProt O00459); remark: listed apart in the source
[18] = molecular target: GRB7 (Homo sapiens) (UniProt Q14451); remark: listed apart in the source
[19] = molecular target: BLK (Homo sapiens) (UniProt P51451)
[20] = molecular target: PIK3R2-N (Homo sapiens) (UniProt O00459); remark: listed apart in the source
[21] = molecular target: RASA1-N (Homo sapiens) (UniProt P20936); remark: listed apart in the source
[22] = molecular target: ABL1 (Homo sapiens) (UniProt P00519)
[23] = molecular target: SYK-NC (Homo sapiens) (UniProt P43405)
[24] = molecular target: PIK3R1-NC (Homo sapiens) (UniProt P27986); remark: listed apart in the source
[25] = molecular target: PIK3R1-N (Homo sapiens) (UniProt P27986)
[26] = molecular target: PIK3R3-NC (Homo sapiens) (UniProt Q92569); remark: listed apart in the source
[27] = molecular target: SYK-NC (Homo sapiens) (UniProt P43405); remark: listed apart in the source
[28] = molecular target: SRC (Homo sapiens) (UniProt P12931)
[29] = molecular target: PIK3R1-N (Homo sapiens) (UniProt P27986); remark: listed apart in the source

Chain of PIK3R2-NC (Homo sapiens) (O00459 325-721): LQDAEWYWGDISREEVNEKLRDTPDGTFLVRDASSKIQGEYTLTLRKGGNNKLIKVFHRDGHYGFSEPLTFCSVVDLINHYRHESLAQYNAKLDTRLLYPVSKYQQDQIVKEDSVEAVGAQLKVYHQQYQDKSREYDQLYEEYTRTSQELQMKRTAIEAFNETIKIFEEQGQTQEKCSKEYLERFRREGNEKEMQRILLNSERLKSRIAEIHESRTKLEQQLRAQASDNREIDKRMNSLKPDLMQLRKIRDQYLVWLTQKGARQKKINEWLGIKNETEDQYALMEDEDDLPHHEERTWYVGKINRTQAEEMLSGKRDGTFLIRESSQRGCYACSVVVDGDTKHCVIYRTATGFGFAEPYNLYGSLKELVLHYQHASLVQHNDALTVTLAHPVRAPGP
Chain of PIK3R2-N (Homo sapiens) (O00459 325-721): as above
Chain of PIK3R1-NC (Homo sapiens) (P27986 328-723): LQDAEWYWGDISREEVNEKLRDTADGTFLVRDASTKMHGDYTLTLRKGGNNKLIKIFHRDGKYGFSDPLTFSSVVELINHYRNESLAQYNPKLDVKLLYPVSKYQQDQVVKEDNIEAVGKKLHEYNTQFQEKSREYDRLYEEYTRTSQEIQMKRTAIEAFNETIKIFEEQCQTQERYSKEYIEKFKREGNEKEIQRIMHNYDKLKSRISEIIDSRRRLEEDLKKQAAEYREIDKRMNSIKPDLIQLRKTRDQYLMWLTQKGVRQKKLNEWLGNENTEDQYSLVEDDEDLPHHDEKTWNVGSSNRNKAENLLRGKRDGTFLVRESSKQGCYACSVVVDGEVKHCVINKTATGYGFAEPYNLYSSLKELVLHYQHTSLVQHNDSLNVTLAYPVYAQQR
Chain of PIK3R1-N (Homo sapiens) (P27986 328-723): as above
Chain of GRB7 (Homo sapiens) (Q14451 426-532): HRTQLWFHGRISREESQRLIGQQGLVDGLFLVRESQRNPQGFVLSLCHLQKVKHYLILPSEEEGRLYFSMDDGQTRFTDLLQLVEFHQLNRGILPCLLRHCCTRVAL
Chain of TENC1 (Homo sapiens) (Q63HR2 1135-1252): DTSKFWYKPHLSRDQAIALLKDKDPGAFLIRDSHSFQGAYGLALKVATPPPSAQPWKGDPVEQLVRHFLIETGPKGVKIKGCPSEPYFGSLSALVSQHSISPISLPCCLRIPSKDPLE
Chain of RASA1-N (Homo sapiens) (P20936 176-446): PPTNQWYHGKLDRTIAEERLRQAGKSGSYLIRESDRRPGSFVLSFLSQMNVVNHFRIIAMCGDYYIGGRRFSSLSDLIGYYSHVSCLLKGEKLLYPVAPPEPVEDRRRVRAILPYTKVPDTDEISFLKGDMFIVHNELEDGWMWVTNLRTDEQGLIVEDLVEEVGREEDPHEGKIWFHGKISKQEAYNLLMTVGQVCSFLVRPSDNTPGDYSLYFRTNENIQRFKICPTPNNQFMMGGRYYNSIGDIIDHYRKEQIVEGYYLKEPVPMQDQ
Chain of ABL1 (Homo sapiens) (P00519 122-222): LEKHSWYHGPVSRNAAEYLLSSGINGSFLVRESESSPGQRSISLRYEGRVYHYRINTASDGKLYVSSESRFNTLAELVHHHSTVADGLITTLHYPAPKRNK
Chain of LYN (Homo sapiens) (P07948 124-231): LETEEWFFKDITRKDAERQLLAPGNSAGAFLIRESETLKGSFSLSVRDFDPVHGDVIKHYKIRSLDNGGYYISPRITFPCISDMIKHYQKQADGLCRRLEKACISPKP
Chain of PLCG2-NC (Homo sapiens) (P16885 527-740): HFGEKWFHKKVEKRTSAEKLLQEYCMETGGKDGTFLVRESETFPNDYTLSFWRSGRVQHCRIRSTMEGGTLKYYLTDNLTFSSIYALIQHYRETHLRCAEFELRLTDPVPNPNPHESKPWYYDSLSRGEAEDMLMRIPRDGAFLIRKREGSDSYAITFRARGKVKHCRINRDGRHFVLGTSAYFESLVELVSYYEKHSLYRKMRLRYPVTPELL
Chain of BLK (Homo sapiens) (P51451 119-225): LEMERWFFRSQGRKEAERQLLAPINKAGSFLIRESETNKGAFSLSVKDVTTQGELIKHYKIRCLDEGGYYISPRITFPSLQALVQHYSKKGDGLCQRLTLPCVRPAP
Chain of ITK (Homo sapiens) (Q08881 234-343): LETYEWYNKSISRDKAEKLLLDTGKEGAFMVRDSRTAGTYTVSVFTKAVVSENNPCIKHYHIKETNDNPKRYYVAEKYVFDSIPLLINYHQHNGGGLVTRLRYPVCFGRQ
Chain of YES1 (Homo sapiens) (P07947 153-260): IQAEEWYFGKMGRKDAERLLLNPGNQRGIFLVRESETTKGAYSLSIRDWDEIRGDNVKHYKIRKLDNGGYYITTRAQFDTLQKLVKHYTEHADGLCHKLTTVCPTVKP
Chain of ABL2 (Homo sapiens) (P42684 168-268): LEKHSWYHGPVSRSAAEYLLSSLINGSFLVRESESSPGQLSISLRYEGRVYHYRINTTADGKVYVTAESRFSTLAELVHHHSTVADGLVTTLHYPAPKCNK

**Q.** Which apparent Kd (screen) [1] does the source give for …pYEYMNRRR here?
**A.** The apparent Kd (screen) was 281 nM.

**Q.** And the apparent Kd (screen) [2]?
**A.** The apparent Kd (screen) was 256 nM.

**Q.** What about the apparent Kd (screen) [3] of the same substance?
**A.** Its apparent Kd (screen) is 614 nM.

**Q.** And the apparent Kd (screen) [4]?
**A.** The apparent Kd (screen) was 155 nM.

**Q.** What about the apparent Kd (screen) [5] of the same substance?
**A.** The apparent Kd (screen) was 1800 nM.

**Q.** And the apparent Kd (screen) [6]?
**A.** The apparent Kd (screen) was 125 nM.

**Q.** And the apparent Kd (screen) [7]?
**A.** The apparent Kd (screen) was 516 nM.

**Q.** What about the apparent Kd (screen) [8] of the same substance?
**A.** Its apparent Kd (screen) is 1070 nM.

**Q.** What about the apparent Kd (screen) [9] of the same substance?
**A.** Its apparent Kd (screen) is 709 nM.

**Q.** What about the apparent Kd (screen) [10] of the same substance?
**A.** Its apparent Kd (screen) is 499 nM.

**Q.** What about the apparent Kd (screen) [11] of the same substance?
**A.** The apparent Kd (screen) was 1630 nM.

**Q.** What about the apparent Kd (screen) [12] of the same substance?
**A.** Its apparent Kd (screen) is 201 nM.

**Q.** What about the apparent Kd (screen) [13] of the same substance?
**A.** Its apparent Kd (screen) is 257 nM.

**Q.** And the apparent Kd (screen) [14]?
**A.** The apparent Kd (screen) was 1110 nM.

**Q.** And the apparent Kd (screen) [15]?
**A.** The apparent Kd (screen) was 143 nM.

**Q.** And the apparent Kd (screen) [16]?
**A.** The apparent Kd (screen) was 125 nM.

**Q.** And the apparent Kd (screen) [17]?
**A.** Its apparent Kd (screen) is 448 nM.

**Q.** And the apparent Kd (screen) [18]?
**A.** Its apparent Kd (screen) is 99 nM.

**Q.** And the apparent Kd (screen) [19]?
**A.** The apparent Kd (screen) was 68 nM.

**Q.** What about the apparent Kd (screen) [20] of the same substance?
**A.** Its apparent Kd (screen) is 239 nM.

**Q.** What about the apparent Kd (screen) [21] of the same substance?
**A.** The apparent Kd (screen) was 929 nM.

**Q.** What about the apparent Kd (screen) [22] of the same substance?
**A.** Its apparent Kd (screen) is 1420 nM.

**Q.** And the apparent Kd (screen) [23]?
**A.** The apparent Kd (screen) was 894 nM.

**Q.** And the apparent Kd (screen) [24]?
**A.** The apparent Kd (screen) was 254 nM.

**Q.** And the apparent Kd (screen) [25]?
**A.** The apparent Kd (screen) was 347 nM.

**Q.** And the apparent Kd (screen) [26]?
**A.** The apparent Kd (screen) was 499 nM.

**Q.** And the apparent Kd (screen) [27]?
**A.** The apparent Kd (screen) was 1260 nM.

**Q.** And the apparent Kd (screen) [28]?
**A.** The apparent Kd (screen) was 866 nM.

**Q.** And the apparent Kd (screen) [29]?
**A.** The apparent Kd (screen) was 674 nM.
